Source: patent US9284369B2, “Inhibition of angiogenesis” (Genentech, Inc., priority 2007, dated 2016)

What was measured:
[1] = system: PKR2/EG-VEGFR2 expression; assay: Regulation of PKR2/EG-VEGFR2 expression in human bone marrow cells and neutrophils; assay type: cell-based
From the text: Taqman reagents for human PKR1/EG-VEGFR1 and PKR2/EG-VEGFR2 were obtained from Applied Biosystems.
(§1) Recombinant human MCP-1, MIP-1α, MIP-1β, MIP-2, bFGF, VEGF, GM-CSF, G-CSF, SDF-1α, M-CSF, Erythropoietin (EPO) and TNFα were purchased from R&D Systems (Minneapolis, Minn.). Recombinant human IL-8, IFNγ, Bv8 (Prokineticin-2), IL-4, IL-10, IL-13, TGF-β were from PeproTech Inc. (Rocky Hill, N.J.). SCF (Stem Cell factor) was from Invitrogen Biosource (Carlsbad, Calif.). In some cases, G-CSF from Amgen (Neupogen/Filgrastim) was used. All cytokines were used at 10 ng/ml. Freshly purified cells were washed and re-suspended in HBSS media containing 0.2% BSA (low endotoxin, Serologicals Corp. Norcross, Ga.). Two million cells were incubated in 24-well plates with various cytokines and chemokines for 4 hr at 37° C. in a 5% CO2 incubator. Cells were then transferred into eppendorf tubes, centrifuged and lysed with RNA lysis buffer (Qiagen, Valencia, Calif.). Bv8 expression was assessed by Taqman with RPL19 (Ribosomal Protein L19) as the internal control gene.

Bv8 expression [2] = settings: previously reported; cited from earlier work
Bv8 protein levels = assay: In vivo G-CSF administration, Bv8 protein levels (ELISA); set-up: species or system mouse
Method: Eight weeks old Balb/c mice were subcutaneously injected with 10 μg recombinant human G-CSF (Neupogen, Amgen) daily for eight consecutive days. Control animals were given PBS. At the end of study, BM, whole blood and spleen samples were taken for analysis. One group of animals was maintained for two days after G-CSF discontinuation. Neutrophil count was done using an automated, high-resolution, flow cytometry-based hematology analyzer (CellDyn 3000). Serum and BM Bv8 levels were measured by ELISA.
MaxiSorp® 96-well microwell plates (Nalge Nunc International, Rochester, N.Y.) were coated with […] 3F1 antibody (a mouse anti-human BV8 antibody, which also binds to mouse Bv8 in 50 mM carbonate buffer, pH 9.6, at 4° C. overnight. Plates were washed with PBS containing 0.05% polysorbate 20 and blocked with 0.5% bovine serum albumin, 10 ppm Proclin 300™ (Supelco, Bellefonte, Pa.) in PBS at room temperature for 1 h. After plates were washed, mouse BV8 standards (0.039-2.50 ng/ml in 2-fold serial dilution, Genentech) and samples (minimum 1:10 dilution) in PBS containing 0.5% bovine serum albumin, 0.05% polysorbate 20, 10 ppm Proclin 300® (Supelco, Bellefonte, Pa.) and 0.35N NaCl (sample buffer) were added to the plates. The plates were incubated for 2 h at room temperature. Unbound antibody was removed by a wash step. Antibody bound to the plates was detected by adding biotinylated 4E10 antibody (a hamster anti-mouse BV8 antibody, Genentech) followed by streptavidin-HRP (GE Healthcare, Buckinghamshire, United Kingdom) and 3,3′,5,5′-tetramethyl benzidine (Kirkegaard & Perry Laboratories, Gaithersburg, Md.) as the substrate. The reaction was stopped by adding 1 M phosphoric acid. Absorbance was read at 450 nm on a Titertek™ stacker reader (ICN, Costa Mesa, Calif.). The titration curves of the standards were fit using a four-parameter regression curve-fitting program (Genentech). Data points which fell in the range of the standard curve were used for calculating the mouse BV8 concentrations in samples.

Bv8 expression [3] = assay: Regulation of Bv8 gene expression in cultured human blood and bone marrow cells (Taqman); assay type: cell-based
Method: RNA was prepared using the RNeasy™ Mini Kit (Qiagen). 50 ng total RNA per reaction was used for the real time PCR (Taqman) analysis. For human Bv8, testis RNA (BD Biosciences) served as control. Reactions were run on 9600 Emulation mode of 7500 Real time PCR system (Applied Biosystems, Foster City, Calif.) and the absolute quantification with standard curve was used with Sequence Detection System (SDS) software. The expression level of each gene was further quantified relative to the housekeeping gene RPL19 in the same sample. The sequences of Taqman primers are as follows: Human Bv8 forward: ATG GCA CGG AAG CTA GGA (SEQ ID NO: 10), reverse: GCAGAGCTGAAGTCCTCTTGA (SEQ ID NO: 11), probe: TGCTGCTGGACCCTTCCTAAACCT (SEQ ID NO: 12); Human RPL19 forward: CGC AAG CGC CGT GAA (SEQ ID NO: 28), reverse: GGTCTCTTCCTCCTTGGATAAAGTC (SEQ ID NO: 29), probe: CCAGGCCAAGAAGGAGGAGATCATCA (SEQ ID NO: 30). Human specific VEGF forward: AAT GAC GAG GGC CTG GAG T (SEQ ID NO: 31), reverse: TTGATCCGCATAATCTGCATG (SEQ ID NO: 32), probe: TGTGCCCACTGAGGAGTCCAACATCA (SEQ ID NO: 33).
as §1

B1: G-CSF: recombinant granulocyte-CSF: mouse or human (R&D Systems) or human Neupogen (Amgen) (protein, chains of the INN, looked up)
chain: MTPLGPASSLPQSFLLKCLEQVRKIQGDGAALQEKLCATYKLCHPEELVLLGHSLGIPWAPLSSCPSQALQLAGCLSQLHSGLFLYQGLLQALEGISPELGPTLDTLQLDVADFATTIWQQMEELGMAPALQPTQGAMPAFASAFQRRAGGVLVASHLQSFLEVSYRVLRHLAQP
regulation of PKR2/EG-VEGFR2 in human bone marrow [1]: regulate PKR2/EG-VEGFR2 to a significant level
up-regulation of Bv8 expression in mouse bone marrow cells and peripheral neutrophils (Bv8 expression [2]): > 30 fold
increase of Bv8 levels in the BM above background (Bv8 protein levels; 24 hours after G-CSF administration): ~30 fold
serum Bv8 levels (Bv8 protein levels; after G-CSF administration): dramatically increased
Bv8 levels in kidney, brain and liver (Bv8 protein levels; data not shown): no effect
time for BM and serum Bv8 to return to near baseline after discontinuing G-CSF (Bv8 protein levels; mouse, in vivo): ≤ 48 h
Bv8 expression in monocytes and lymphocytes (Bv8 expression [3]; 10 ng/ml, 4 hr): did not show any change
induction of Bv8 expression in human neutrophils and whole bone marrow cells (Bv8 expression [3]; 10 ng/ml, 4 hr): 7 fold
range of induction of Bv8 expression (Bv8 expression [3]; 10 ng/ml, 4 hr): 6-12 fold
duration of Bv8 mRNA induction (Bv8 expression [3]; data not shown): up to 24 hr
